According to publication PMC8047080, “Engineering Cofactor Specificity of a Thermostable Phosphite Dehydrogenase for a Highly Efficient and Robust NADPH Regeneration System” (Frontiers in Bioengineering and Biotechnology, 2021):

T1: shikimate dehydrogenase (SDH) (Thermus thermophilus, UniProt Q5SJF8)
T1 construct: gene aroE; pET-11a in E. coli Rosetta 2 (DE3) pLysS; heat treatment at 80°C and HiTrap SP purification
T1 sequence (Q5SJF8 1-263): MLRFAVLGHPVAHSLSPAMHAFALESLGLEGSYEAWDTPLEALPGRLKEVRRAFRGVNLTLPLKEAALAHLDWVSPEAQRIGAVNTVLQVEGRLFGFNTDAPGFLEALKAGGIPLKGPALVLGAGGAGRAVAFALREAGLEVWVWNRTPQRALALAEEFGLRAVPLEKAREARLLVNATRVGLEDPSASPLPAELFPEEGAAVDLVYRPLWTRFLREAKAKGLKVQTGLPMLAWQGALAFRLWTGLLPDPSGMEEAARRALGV


How the values were obtained:
[1] = tested on: NC(=O)c1ccc[n+]([C@@H]2O[C@H](COP(=O)(O)OP(=O)(O)OC[C@H]3O[C@@H](n4cnc5c(N)ncnc54)[C@H](O)[C@@H]3O)[C@@H](O)[C@H]2O)c1; test: purified protein; conditions: 1 mM phosphite, 100 mM MOPS pH 7.3
O=[PH](O)O = test: purified protein; conditions: 1 mM NADP as co-substrate, 100 mM MOPS pH 7.3
[2] = tested on: NC(=O)c1ccc[n+]([C@@H]2O[C@H](COP(=O)(O)OP(=O)(O)OC[C@H]3O[C@@H](n4cnc5c(N)ncnc54)[C@H](OP(=O)(O)O)[C@@H]3O)[C@@H](O)[C@H]2O)c1; test: purified protein; conditions: 1 mM phosphite, 100 mM MOPS pH 7.3
[3] = target: T1, shikimate dehydrogenase (SDH); test: HPLC ([…] nm) of shikimic acid formed in coupled reaction with RsPtxD; type: biochemical; conditions: NADPH regenerated from 0.1 mM NADP by RsPtxD HARRA mutant; 20 mM phosphite; 100 mM HEPES pH 8.0; 45°C
purified protein [4] = substrate: NC(=O)c1ccc[n+]([C@@H]2O[C@H](COP(=O)(O)OP(=O)(O)OC[C@H]3O[C@@H](n4cnc5c(N)ncnc54)[C@H](O)[C@@H]3O)[C@@H](O)[C@H]2O)c1; test: purified protein; conditions: 1 mM phosphite, 100 mM MOPS pH 7.3; remark: listed apart in the source
purified protein [5] = substrate: NC(=O)c1ccc[n+]([C@@H]2O[C@H](COP(=O)(O)OP(=O)(O)OC[C@H]3O[C@@H](n4cnc5c(N)ncnc54)[C@H](OP(=O)(O)O)[C@@H]3O)[C@@H](O)[C@H]2O)c1; test: purified protein; conditions: 1 mM phosphite, 100 mM MOPS pH 7.3; remark: listed apart in the source
purified protein [6] = substrate: O=[PH](O)O; test: purified protein; conditions: 1 mM NAD as co-substrate, 100 mM MOPS pH 7.3

Molecule	Km [1]	kcat [1]	kcat/Km [1]	Km (O=[PH](O)O)	Km [2]	kcat [2]	kcat/Km [2]	HPLC (230 nm) of shikimic acid formed in coupled reaction with RsPtxD [3]	Km (purified protein [4])	kcat (purified protein [4])	kcat/Km (purified protein [4])	Km (purified protein [5])	kcat (purified protein [5])	Km (purified protein [6])
RsPtxD (Ralstonia sp. 4506; C174H/D175A/I177K/P176R/P178A)	130 ± 10.6 µM	154 ± 7.5 min^–1	20000 M⁻¹ s⁻¹	27 ± 9.0 µM	4.4 ± 0.9 µM	129 ± 12.1 min^–1	493000 M⁻¹ s⁻¹	–	–	–	–	–	–	–
RsPtxD (Ralstonia sp. 4506; C174H/D175A/I177R/P176R/P178A)	112 ± 1.3 µM	148 ± 14.8 min^–1	21700 M⁻¹ s⁻¹	38 ± 8.5 µM	2.9 ± 0.5 µM	128 ± 16.6 min^–1	735000 M⁻¹ s⁻¹	–	–	–	–	–	–	–
NC(=O)C1=CN([C@@H]2O[C@H](COP(=O)(O)OP(=O)(O)OC[C@H]3O[C@@H](n4cnc5c(N)ncnc54)[C@H](OP(=O)(O)O)[C@@H]3O)[C@@H](O)[C@H]2O)C=CC1 [NADPH]	–	–	–	–	–	–	–	SDH catalyzes the reduction of 3-DHS to SA	–	–	–	–	–	–
RsPtxD (Ralstonia sp. 4506; C174H/D175A/P176R)	154 ± 14.7 µM	155 ± 2.3 min^–1	16700 M⁻¹ s⁻¹	–	24 ± 5.2 µM	118 ± 6.8 min^–1	81700 M⁻¹ s⁻¹	–	–	–	–	–	–	–
RsPtxD (Ralstonia sp. 4506; D175A/P176R)	412 ± 21.5 µM	115 ± 13.0 min^–1	5000 M⁻¹ s⁻¹	–	56 ± 5.1 µM	91.1 ± 3.9 min^–1	26700 M⁻¹ s⁻¹	–	–	–	–	–	–	–
RsPtxD (Ralstonia sp. 4506) (protein) MKPKVVLTHWVHPEIIELLSASADVIPNTTRETLPRSEVIARAKDADALMAFMPDSIDSAFLEECPKLRVIGAALKGYDNFDVNACTRHGVWLTIVPDLLTIPTAELTIGLLLGLTRHMLEGDRQIRSGHFQGWRPTLYGSGLTGKTLGIIGMGAVGRAIAQRLAGFEMNLLYCDPIPLNAEQEKAWHVQRVTLDELLEKCDYVVPMVPMAAETLHLIDATALAKMKTGSYLINACRGSVVDENAVIAALASGKLAGYAADVFEMEEWIRADRPQAIPKALLDNTAQTFFTPHLGSAVKEVRLEIERQAAMNIIQALAGEKPMGAINQPYPGVKAA	–	–	–	–	–	–	–	–	7.7 ± 2.3 µM	127 ± 16.8 min^–1	277000 M⁻¹ s⁻¹	418 ± 38.7 µM	16.0 ± 6.3 min^–1	37.0 ± 7.0 µM
